From article PMC9411592, “Specificity of TGF-β1 signal designated by LRRC33 and integrin αVβ8” (Nature Communications, 2022) come the findings set out here.

In assay [1] the target is L-TGF-β1/LRRC33 complex (L-TGF-β1 dimer disulfide-linked to one LRRC33 ectodomain) (human, N-linked glycosylation | N-linked glycosylation). In words: cryo-EM structure; purified αVβ8 headpiece and purified L-TGF-β1/LRRC33 mixed on ice at a molar ratio of 2.2:1 with 1 mM MnCl2 and 0.2 mM CaCl2, then SEC; 2:2:1 map at 5.19 Å, masked 1:2 αVβ8/L-TGF-β1 at 3.24 Å. To be noted: both partners purified.

The target in assay [2] is T1, L-TGF-β1 C4S/R249A (the 'WT' of the SPR assay) (human).
T1 construct: latent TGF-β1, human, with C4S and R249A; numbers count on: the protein without its signal peptide; The methods describe L-TGF-β1 alone as N-terminally His6-tagged, made in HEK293S GnTI- cells, tag cleaved with PreScission; also called WT (C4S/R249A) L-TGF-β1; mutant L-TGF-β1 (C4S/R249A); source: purified
In words: SPR; Biacore T200, 25 °C; L-TGF-β1 (C4S/R249A, or + RGEGATG) immobilised on a CM5 chip by amine coupling; integrin headpieces injected at 20 μl/min in 20 mM HEPES pH 7.5, 150 mM NaCl, 1 mM MgCl2, 1 mM CaCl2; 1:1 Langmuir model. To be noted: both partners purified.

T1 sequence (P01137 other isoform, or with tags, fused parts or gaps R249A R249A): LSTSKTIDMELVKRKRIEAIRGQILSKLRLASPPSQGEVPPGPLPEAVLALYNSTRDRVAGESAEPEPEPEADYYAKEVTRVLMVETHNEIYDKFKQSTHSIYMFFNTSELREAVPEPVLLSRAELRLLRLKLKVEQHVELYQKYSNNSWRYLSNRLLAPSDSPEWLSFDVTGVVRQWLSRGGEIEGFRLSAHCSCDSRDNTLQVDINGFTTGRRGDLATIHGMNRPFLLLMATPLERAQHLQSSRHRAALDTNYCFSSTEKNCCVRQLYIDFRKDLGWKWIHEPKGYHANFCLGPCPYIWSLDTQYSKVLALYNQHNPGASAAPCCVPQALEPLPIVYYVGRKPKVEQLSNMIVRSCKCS
Sequence of L-TGF-β1/LRRC33 complex (L-TGF-β1 dimer disulfide-linked to one LRRC33 ectodomain) (human, N-linked glycosylation | N-linked glycosylation) (chain, as listed by the source, chain 1 of 2): as the sequence (P01137 other isoform, or with tags, fused parts or gaps R249A R249A) above, with S4C, A249R counted along it
Sequence of L-TGF-β1/LRRC33 complex (L-TGF-β1 dimer disulfide-linked to one LRRC33 ectodomain) (human, N-linked glycosylation | N-linked glycosylation) (chain, as listed by the source, chain 2 of 2): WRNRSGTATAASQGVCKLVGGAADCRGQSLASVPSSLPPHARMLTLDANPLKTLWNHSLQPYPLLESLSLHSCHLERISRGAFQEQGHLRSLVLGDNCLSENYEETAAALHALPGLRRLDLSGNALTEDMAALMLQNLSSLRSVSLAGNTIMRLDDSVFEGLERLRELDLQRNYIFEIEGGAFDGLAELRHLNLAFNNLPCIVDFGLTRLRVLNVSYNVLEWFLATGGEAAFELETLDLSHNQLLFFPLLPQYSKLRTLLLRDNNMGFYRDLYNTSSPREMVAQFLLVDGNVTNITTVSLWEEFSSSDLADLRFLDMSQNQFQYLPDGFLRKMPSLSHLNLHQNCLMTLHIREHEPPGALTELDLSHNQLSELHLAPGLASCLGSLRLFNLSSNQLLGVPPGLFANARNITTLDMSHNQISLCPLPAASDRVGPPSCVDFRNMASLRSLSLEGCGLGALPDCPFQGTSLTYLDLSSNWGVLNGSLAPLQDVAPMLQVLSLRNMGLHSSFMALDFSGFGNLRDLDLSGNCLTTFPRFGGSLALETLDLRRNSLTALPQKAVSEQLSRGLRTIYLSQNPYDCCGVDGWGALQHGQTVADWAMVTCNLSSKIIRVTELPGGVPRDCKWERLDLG

B1: integrin αVβ8 headpiece (αV residues 1-594, β8 residues 1-456) (complex)
chain 1: FNLDVDSPAEYSGPEGSYFGFAVDFFVPSASSRMFLLVGAPKANTTQPGIVEGGQVLKCDWSSTRRCQPIEFDATGNRDYAKDDPLEFKSHQWFGASVRSKQDKILACAPLYHWRTEMKQEREPVGTCFLQDGTKTVEYAPCRSQDIDADGQGFCQGGFSIDFTKADRVLLGGPGSFYWQGQLISDQVAEIVSKYDPNVYSIKYNNQLATRTAQAIFDDSYLGYSVAVGDFNGDGIDDFVSGVPRAARTLGMVYIYDGKNMSSLYNFTGEQMAAYFGFSVAATDINGDDYADVFIGAPLFMDRGSDGKLQEVGQVSVSLQRASGDFQTTKLNGFEVFARFGSAIAPLGDLDQDGFNDIAIAAPYGGEDKKGIVYIFNGRSTGLNAVPSQILEGQWAARSGCPPSFGYSMKGATDIDKNGYPDLIVGAFGVDRAILYRARPVITVNAGLEVYPSILNQDNKTCSLPGTALKVSCFNVRFCLKADGKGVLPRKLNFQVELLLDKLKQKGAIRRALFLYSRSPSHSKNMTISRGGLMQCEELIAYLRDESEFRDKLTPITIFMEYRLDYRTAADTTGLQPILNQFTPANISRQAHILLD
chain 2: EDNRCASSNAASCARCLALGPECGWCVQEDFISGGSRSERCDIVSNLISKGCSVDSIEYPSVHVIIPTENEINTQVTPGEVSIQLRPGAEANFMLKVHPLKKYPVDLYYLVDVSASMHNNIEKLNSVGNDLSRKMAFFSRDFRLGFGSYVDKTVSPYISIHPERIHNQCSDYNLDCMPPHGYIHVLSLTENITEFEKAVHRQKISGNIDTPEGGFDAMLQAAVCESHIGWRKEAKRLLLVMTDQTSHLALDSKLAGIVCPNDGNCHLKNNVYVKSTTMEHPSLGQLSEKLIDNNINVIFAVQGKQFHWYKDLLPLLPGTIAGEIESKAANLNNLVVEAYQKLISEVKVQVENQVQGIYFNITAICPDGSRKPGMEGCRNVTSNDEVLFNVTVTMKKCDVTGGKNYAIIKPIGFNETAKIHIHRNCSCQCEDNRGPKGKCVDETFLDSKCFQCDENK
Turning to B1, the “stoichiometry N” value in assay [1] was 2 αVβ8 per L-TGF-β1 dimer/LRRC33 complex. The Kd in assay [2] was 111 nM.

B2: integrin αVβ6 headpiece (αV residues 1-594, β6 residues 1-474) (complex)
chain 1: FNLDVDSPAEYSGPEGSYFGFAVDFFVPSASSRMFLLVGAPKANTTQPGIVEGGQVLKCDWSSTRRCQPIEFDATGNRDYAKDDPLEFKSHQWFGASVRSKQDKILACAPLYHWRTEMKQEREPVGTCFLQDGTKTVEYAPCRSQDIDADGQGFCQGGFSIDFTKADRVLLGGPGSFYWQGQLISDQVAEIVSKYDPNVYSIKYNNQLATRTAQAIFDDSYLGYSVAVGDFNGDGIDDFVSGVPRAARTLGMVYIYDGKNMSSLYNFTGEQMAAYFGFSVAATDINGDDYADVFIGAPLFMDRGSDGKLQEVGQVSVSLQRASGDFQTTKLNGFEVFARFGSAIAPLGDLDQDGFNDIAIAAPYGGEDKKGIVYIFNGRSTGLNAVPSQILEGQWAARSGCPPSFGYSMKGATDIDKNGYPDLIVGAFGVDRAILYRARPVITVNAGLEVYPSILNQDNKTCSLPGTALKVSCFNVRFCLKADGKGVLPRKLNFQVELLLDKLKQKGAIRRALFLYSRSPSHSKNMTISRGGLMQCEELIAYLRDESEFRDKLTPITIFMEYRLDYRTAADTTGLQPILNQFTPANISRQAHILLD
chain 2: HVQGGCALGGAETCEDCLLIGPQCAWCAQENFTHPSGVGERCDTPANLLAKGCQLNFIENPVSQVEILKNKPLSVGRQKNSSDIVQIAPQSLILKLRPGGAQTLQVHVRQTEDYPVDLYYLMDLSASMDDDLNTIKELGSRLSKEMSKLTSNFRLGFGSFVEKPVSPFVKTTPEEIANPCSSIPYFCLPTFGFKHILPLTNDAERFNEIVKNQKISANIDTPEGGFDAIMQAAVCKEKIGWRNDSLHLLVFVSDADSHFGMDSKLAGIVCPNDGLCHLDSKNEYSMSTVLEYPTIGQLIDKLVQNNVLLIFAVTQEQVHLYENYAKLIPGATVGLLQKDSGNILQLIISAYEELRSEVELEVLGDTEGLNLSFTAICNNGTLFQHQKKCSHMKVGDTASFSVTVNIPHCERRSRHIIIKPVGLGDALELLVSPECNCDCQKEVEVNSSKCHHGNGSFQCGVCACHPGHMGPRCE
On to B2, for which the Kd in assay [2] is 2.18 nM.

B3: integrin αVβ6-8DLL headpiece (the disulfide-linked loop of β6 substituted by that of β8) (complex)
chain 1: FNLDVDSPAEYSGPEGSYFGFAVDFFVPSASSRMFLLVGAPKANTTQPGIVEGGQVLKCDWSSTRRCQPIEFDATGNRDYAKDDPLEFKSHQWFGASVRSKQDKILACAPLYHWRTEMKQEREPVGTCFLQDGTKTVEYAPCRSQDIDADGQGFCQGGFSIDFTKADRVLLGGPGSFYWQGQLISDQVAEIVSKYDPNVYSIKYNNQLATRTAQAIFDDSYLGYSVAVGDFNGDGIDDFVSGVPRAARTLGMVYIYDGKNMSSLYNFTGEQMAAYFGFSVAATDINGDDYADVFIGAPLFMDRGSDGKLQEVGQVSVSLQRASGDFQTTKLNGFEVFARFGSAIAPLGDLDQDGFNDIAIAAPYGGEDKKGIVYIFNGRSTGLNAVPSQILEGQWAARSGCPPSFGYSMKGATDIDKNGYPDLIVGAFGVDRAILYRARPVITVNAGLEVYPSILNQDNKTCSLPGTALKVSCFNVRFCLKADGKGVLPRKLNFQVELLLDKLKQKGAIRRALFLYSRSPSHSKNMTISRGGLMQCEELIAYLRDESEFRDKLTPITIFMEYRLDYRTAADTTGLQPILNQFTPANISRQAHILLD
chain 2: HVQGGCALGGAETCEDCLLIGPQCAWCAQENFTHPSGVGERCDTPANLLAKGCQLNFIENPVSQVEILKNKPLSVGRQKNSSDIVQIAPQSLILKLRPGGAQTLQVHVRQTEDYPVDLYYLMDLSASMDDDLNTIKELGSRLSKEMSKLTSNFRLGFGSFVEKPVSPFVKTTPEEIANPCSDYNLDCLPTFGFKHILPLTNDAERFNEIVKNQKISANIDTPEGGFDAIMQAAVCKEKIGWRNDSLHLLVFVSDADSHFGMDSKLAGIVCPNDGLCHLDSKNEYSMSTVLEYPTIGQLIDKLVQNNVLLIFAVTQEQVHLYENYAKLIPGATVGLLQKDSGNILQLIISAYEELRSEVELEVLGDTEGLNLSFTAICNNGTLFQHQKKCSHMKVGDTASFSVTVNIPHCERRSRHIIIKPVGLGDALELLVSPECNCDCQKEVEVNSSKCHHGNGSFQCGVCACHPGHMGPRCE
Take B3: in assay [2], the dissociation constant Kd turned out to be 46.9 nM.
